The values below are quoted from earlier work in paper PMC8189991.

For the data set, the target named is Asp96 (UniProt position 109, PLLLLDLALLV). Briefly: IR.

With “Bacteriorhodopsin (Halobacterium salinarum (not stated in the article; inferred))”, the pKa result is reported as “above 12”.
